Experimental data reported in paper PMC3180432.

Assays:
B7-H1-Fc (mouse) = B7-H1-Fc (mouse) (UniProt Q9EP73); assay: SPR; BIAcore 2000, CM5 chip, ligand immobilised by amine coupling, analyte protein injected at different molarities at 10 uL/min, HBS (0.01 M Hepes pH 7.4, 0.15 M NaCl, 0.005% P20), 25°C
B7.1-Fc (mouse) = B7.1-Fc (mouse) (UniProt Q00609); assay: as above

Q: Which Kd (B7-H1-Fc (mouse)) does the source give for “B7.1-Fc (from UniProt Q00609 38-246) (Fc fusion)” here?
A: 380 nM

Q: “PD-1-Fc (from UniProt Q02242 25-169) (Fc fusion)” was tested. Which Kd (B7-H1-Fc (mouse)) did it give?
A: 820 nM

Q: How did the Kd (B7.1-Fc (mouse)) turn out when “B7-H1-Fc (from UniProt Q9EP73 19-239) (Fc fusion)” was run?
A: 1070 nM
